Assay results published in the RNAGym collection of RNA variant scans (doi:10.7554/elife.90254).

B1: OR4K15 (parent)
chain: GUUAACGGUCAUAGGCCAUGGAAACUAGGAGCACCAUUUCGCUGCCAGUGAAGAAAUGAACAAAGAAAAUCUGGGCCAGGCAGGCAUCAAAAGAAAUAGUCUUGCGCUCAACCAGAAAGUCUGUAAUCAUUUUAAGGGUA

Variants of: B1
Assay: self-cleavage, relative activity (ratio to wild type); higher = more cleavage; in vitro, sequencing; the parent is a self-cleaving ribozyme
For C34U A59U, the self-cleavage was 0.75.
With U37A A59G the self-cleavage was 1.78.
In the case of A36U U120C, the self-cleavage is reported as 1.34.
Work on A33G U108A yielded a self-cleavage of 0.02.
A33G U108C showed a self-cleavage of 0.02.
A36U A51U showed a self-cleavage of 1.72.
Variant A36U A51G has a self-cleavage of 1.82.
With U37C G136A the self-cleavage was 2.23.
C35U U132C gave a self-cleavage of 0.37.
Work on A36U A140G yielded a self-cleavage of 2.09.
With C34U A126G the self-cleavage was 1.12.
Work on U37A A98G yielded a self-cleavage of 1.07.
With C35U the self-cleavage was 1.06.
C35G showed a self-cleavage of 1.34.
C35A gave a self-cleavage of 1.58.
Work on A36U U108C yielded a self-cleavage of 0.02.
A36U U108A showed a self-cleavage of 0.
U37C A140U showed a self-cleavage of 1.87.
With A36G A51U the self-cleavage was 1.86.
With A36G A51G the self-cleavage was 0.9.
Variant A36G U108C has a self-cleavage of 0.01.
A33U A86G gave a self-cleavage of 1.33.
Variant A36G U103C has a self-cleavage of 0.43.
C34U C76U gave a self-cleavage of 0.12.
With A36G C85U the self-cleavage was 0.98.
With U37A A60G the self-cleavage was 1.14.
Variant U37A A60U has a self-cleavage of 1.8.
Variant A36U A67U has a self-cleavage of 1.55.
For A36U A67G, the self-cleavage was 1.86.
In the case of A36G U133A, the self-cleavage is reported as 2.28.
For A33U G41A, the self-cleavage was 1.52.
For C35U A52G, the self-cleavage was 1.03.
Variant C35A A51U has a self-cleavage of 1.93.
With A36G U70C the self-cleavage was 0.6.
Variant C34A A116U has a self-cleavage of 0.51.
Variant C34U A92G has a self-cleavage of 1.04.
Work on U37C C81U yielded a self-cleavage of 0.49.
With A36G C76A the self-cleavage was 0.12.
A36G U97C gave a self-cleavage of 2.04.
For C34U U72C, the self-cleavage was 0.17.
Variant A36G U120A has a self-cleavage of 2.61.
A36G U120G showed a self-cleavage of 1.29.
A36G U120C showed a self-cleavage of 1.28.
For C35A A91G, the self-cleavage was 1.42.
C34A G73A showed a self-cleavage of 0.17.
Work on A33U A59C yielded a self-cleavage of 2.23.
A36G A62C gave a self-cleavage of 1.51.
A36G A62U gave a self-cleavage of 2.06.
U37A A69U showed a self-cleavage of 1.92.
A33U A69G showed a self-cleavage of 1.71.
For A33G U124C, the self-cleavage was 0.63.
Variant U37C C77U has a self-cleavage of 2.11.
With U37C U39C the self-cleavage was 1.72.
A36C U49A gave a self-cleavage of 2.
In the case of U37A A114U, the self-cleavage is reported as 0.06.
Variant U37C G115U has a self-cleavage of 0.37.
A36U A82G showed a self-cleavage of 0.39.
With C35A A94G the self-cleavage was 2.34.
For U37C A67G, the self-cleavage was 0.68.
With A33U U127A the self-cleavage was 2.74.
U37C U97C showed a self-cleavage of 2.06.
A36U U122C gave a self-cleavage of 1.15.
With A36U U122A the self-cleavage was 1.78.
Work on A36C U127A yielded a self-cleavage of 2.57.
With C35U U57C the self-cleavage was 0.58.
In the case of A33U U39C, the self-cleavage is reported as 1.56.
Variant A36C U100C has a self-cleavage of 1.85.
In the case of A36C A66U, the self-cleavage is reported as 1.68.
Variant A36G G41A has a self-cleavage of 2.26.
For A33G U127A, the self-cleavage was 1.19.
Variant A33G U127C has a self-cleavage of 0.23.
In the case of A33G U102C, the self-cleavage is reported as 1.44.
For A33G U102A, the self-cleavage was 0.34.
For A33G U97A, the self-cleavage was 1.18.
With A36U A110G the self-cleavage was 0.21.
Work on U37C G44A yielded a self-cleavage of 1.56.
With A36G A117U the self-cleavage was 1.29.
In the case of A36G A117G, the self-cleavage is reported as 2.27.
For A36U U49A, the self-cleavage was 0.81.
U37C A117U showed a self-cleavage of 1.11.
Variant U37C A117G has a self-cleavage of 1.98.
A36U A95U showed a self-cleavage of 1.37.
A36U A95G gave a self-cleavage of 2.18.
C35U A60G gave a self-cleavage of 0.76.
Work on C35U A135G yielded a self-cleavage of 1.57.
A36U A114U showed a self-cleavage of 0.14.
For A36U A114G, the self-cleavage was 0.6.
U37C G83A showed a self-cleavage of 2.15.
With C34U U130C the self-cleavage was 1.44.
Work on U37C U43A yielded a self-cleavage of 1.55.
U37A A66G gave a self-cleavage of 1.72.
Work on C34U U131C yielded a self-cleavage of 0.84.
Variant A33U U108C has a self-cleavage of 0.05.
For A33U A55U, the self-cleavage was 2.31.
For A36U A60U, the self-cleavage was 2.08.
A36U A60G gave a self-cleavage of 1.11.
C35U C88A gave a self-cleavage of 1.16.
For A36U U43C, the self-cleavage was 2.05.
Variant U37C A62U has a self-cleavage of 1.49.
For U37A U139C, the self-cleavage was 1.19.
U37C G104A showed a self-cleavage of 0.03.
In the case of A36G A95G, the self-cleavage is reported as 2.04.
In the case of A36C U37A, the self-cleavage is reported as 1.85.
In the case of A36U A63G, the self-cleavage is reported as 1.98.
U37C A82U showed a self-cleavage of 0.13.
A36U U37C gave a self-cleavage of 0.59.
U37C C109A showed a self-cleavage of 0.34.
In the case of A36G G75A, the self-cleavage is reported as 0.09.
For C34A A59G, the self-cleavage was 1.11.
Variant A33U A89G has a self-cleavage of 1.46.
Work on A36G A55U yielded a self-cleavage of 1.38.
Work on A36G A55G yielded a self-cleavage of 1.18.
Variant A33G U43A has a self-cleavage of 1.32.
U37C G75A showed a self-cleavage of 0.08.
Variant A36G A92G has a self-cleavage of 1.
With A36G A92C the self-cleavage was 2.15.
Work on C35U U38C yielded a self-cleavage of 0.61.
Variant A33U C85A has a self-cleavage of 2.05.
With C35A A66G the self-cleavage was 0.76.
With U37A U127C the self-cleavage was 0.71.
Work on A36G A129G yielded a self-cleavage of 1.3.
A36U U103A gave a self-cleavage of 0.63.
For A36U U103C, the self-cleavage was 1.16.
In the case of A36G U124C, the self-cleavage is reported as 0.45.
A33U A135U showed a self-cleavage of 1.79.
For A36G A126U, the self-cleavage was 1.76.
Variant A36G A126G has a self-cleavage of 1.48.
For C35U U102A, the self-cleavage was 0.81.
With U37C G58A the self-cleavage was 1.14.
U37C A95G showed a self-cleavage of 2.37.
For C34U A129G, the self-cleavage was 0.51.
C34A U102A gave a self-cleavage of 1.09.
Variant A36G U39C has a self-cleavage of 0.79.
A36G U43C gave a self-cleavage of 1.91.
For A36G U43A, the self-cleavage was 1.27.
Variant A33U C105U has a self-cleavage of 0.49.
A36U A117G gave a self-cleavage of 1.52.
Variant A36U A117U has a self-cleavage of 0.88.
C34U U122C showed a self-cleavage of 2.62.
For A36G A69G, the self-cleavage was 1.37.
With U37C A96C the self-cleavage was 0.89.
For A33U A64G, the self-cleavage was 1.31.
Work on A33U U72G yielded a self-cleavage of 0.51.
With U37A A89G the self-cleavage was 0.43.
For A33U U122C, the self-cleavage was 1.02.
For A33U U122A, the self-cleavage was 2.69.
Variant A33U U120C has a self-cleavage of 1.32.
In the case of A33U A110U, the self-cleavage is reported as 1.71.
Work on A33U A110G yielded a self-cleavage of 0.08.
For C34A U43A, the self-cleavage was 1.8.
For U37C A56G, the self-cleavage was 0.73.
Variant A36C U38C has a self-cleavage of 1.43.
C34U A55G showed a self-cleavage of 2.06.
Work on A33U G104A yielded a self-cleavage of 0.01.
Variant U37A U100C has a self-cleavage of 2.33.
U37C G84A gave a self-cleavage of 1.7.
In the case of A36G A59G, the self-cleavage is reported as 1.75.
A36G A59U gave a self-cleavage of 0.83.
With A36G A63C the self-cleavage was 2.09.
For A36G A63U, the self-cleavage was 1.91.
For A36G A63G, the self-cleavage was 1.32.
In the case of U37A A118G, the self-cleavage is reported as 1.4.
A36U C76A gave a self-cleavage of 0.1.
With A33U A60U the self-cleavage was 1.68.
A33U U102C gave a self-cleavage of 2.32.
In the case of U37C U49A, the self-cleavage is reported as 1.64.
Variant U37C U49C has a self-cleavage of 1.71.
